Assay results as given in article PMC6082896.

Target: T1, OxyR (Pseudomonas aeruginosa (PAO1?)) (UniProt Q9HTL4)
T1 sequence: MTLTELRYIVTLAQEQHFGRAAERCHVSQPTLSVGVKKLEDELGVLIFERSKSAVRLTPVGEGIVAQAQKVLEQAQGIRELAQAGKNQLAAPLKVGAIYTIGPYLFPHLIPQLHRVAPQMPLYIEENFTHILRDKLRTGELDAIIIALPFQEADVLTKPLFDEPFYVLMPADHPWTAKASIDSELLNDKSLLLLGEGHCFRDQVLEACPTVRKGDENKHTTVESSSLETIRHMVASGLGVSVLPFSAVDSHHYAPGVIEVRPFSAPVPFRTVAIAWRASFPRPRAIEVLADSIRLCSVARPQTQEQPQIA
Test: EMSA
Conditions: 20 mM Tris-HCl pH 7.0, 50 mM KCl, 1 mM EDTA, 5% glycerol, 50 ug/ml BSA, 5 ug/ml calf thymus DNA, 0.5 ug/ml poly[dI-dC], 50 ug/ml salmon sperm DNA, 100 mM DTT …

With “AAGTCGGTGATGGCCTCGCCGGCCAGGCGGCGCAGGCGCTTCTGCAGTTTGTTCTGATTGACCGAAAGGGTGCCCATGGTGCTCTGGAATCCGGGTGTTCGAGGAGAAAAGCTGGCTATTTTACGCACAAAGCGACGCCGACCCCAGCCCCTCCCGACGCCCGATGCTAGTCTTGCCCCATGACTCCCGACCTCGACCACCGCCTCGACCT (double strand) [ttcA promoter fragment]” as the sequence, how does the binding read?
The binding was “binds”.
